Test results published in US10941182 (Amgen, dated 2021).
Starred links: 1 amine or outer side, 2 acyl side, 3 side chain; linkers in the order of their positions; H or OH if unused. Non-standard residues stand in square brackets, D forms with d. Primed or numbered codes have the meaning given here. *: point of attachment. NPipG = 2-(piperidin-4-ylamino)acetic acid, O=C(CN(C1CCN([*:3])CC1)[*:1])[*:2]; AC4Abu = α-carboxy-4-aminobutyric acid, O=C(C(CCN[*:1])C(=O)[*:3])[*:2]; dBip = N[C@H](Cc1ccc(-c2ccccc2)cc1)C(=O)O; Oic = O=C(O)[C@@H]1C[C@@H]2CCCC[C@@H]2N1; Phe(4-Cl) = N[C@@H](Cc1ccc(Cl)cc1)C(=O)O; Phe(4-I) = N[C@@H](Cc1ccc(I)cc1)C(=O)O; γGlu = O=C(O)[C@H](CCC(=O)[*:2])N[*:1]; HOOC(CH2)8CO = O=C(O)CCCCCCCCC(=O)*; d(β3hF) = N[C@@H](CC(=O)O)Cc1ccccc1; NMeR = CN[C@@H](CCCNC(=N)N)C(=O)O; Palmitoyl = CCCCCCCCCCCCCCCC(=O)*; Tridecanoyl = CCCCCCCCCCCCC(=O)*; hArg = N=C(N)NCCCC[C@H](N)C(=O)O; Tic = O=C(O)[C@@H]1Cc2ccccc2CN1; dTic = O=C(O)[C@H]1Cc2ccccc2CN1; β3hF = N[C@H](CC(=O)O)Cc1ccccc1; Cha = N[C@@H](CC1CCCCC1)C(=O)O; NMeL = CN[C@@H](CC(C)C)C(=O)O; Aic = NC1(C(=O)O)Cc2ccccc2C1; β3hP = O=C(O)C[C@@H]1CCCN1; Pip = O=C(O)[C@@H]1CCCCN1; Nle = CCCC[C@H](N)C(=O)O; Orn = NCCC[C@H](N)C(=O)O; Pip′ = not defined here; AEEA = NCCOCCOCC(=O)O; Aib = CC(C)(N)C(=O)O; Inp = O=C(O)C1CCNCC1

B1: SEQ ID NO: 599 (peptide)
peptide: Palmitoyl-[AC4Abu][AEEA][AEEA][dQ]RP[NMeR][Cha]SHKG[Pip][Nle]P[dTic]-OH
SMILES: CCCCCCCCCCCCCCCC(=O)NCCC(C(=O)O)C(=O)NCCOCCOCC(=O)NCCOCCOCC(=O)N[C@H](CCC(N)=O)C(=O)N[C@@H](CCCNC(=N)N)C(=O)N1CCC[C@H]1C(=O)N(C)[C@@H](CCCNC(=N)N)C(=O)N[C@@H](CC1CCCCC1)C(=O)N[C@@H](CO)C(=O)N[C@@H](Cc1c[nH]cn1)C(=O)N[C@@H](CCCCN)C(=O)NCC(=O)N1CCCC[C@H]1C(=O)N[C@@H](CCCC)C(=O)N1CCC[C@H]1C(=O)N1Cc2ccccc2C[C@@H]1C(=O)O
B2: SEQ ID NO: 597 (peptide)
peptide: Palmitoyl-[AC4Abu][AEEA][AEEA][dQ]RP[NMeR][Cha]SHKG[Pip][Nle][Aic]-OH
SMILES: CCCCCCCCCCCCCCCC(=O)NCCC(C(=O)O)C(=O)NCCOCCOCC(=O)NCCOCCOCC(=O)N[C@H](CCC(N)=O)C(=O)N[C@@H](CCCNC(=N)N)C(=O)N1CCC[C@H]1C(=O)N(C)[C@@H](CCCNC(=N)N)C(=O)N[C@@H](CC1CCCCC1)C(=O)N[C@@H](CO)C(=O)N[C@@H](Cc1c[nH]cn1)C(=O)N[C@@H](CCCCN)C(=O)NCC(=O)N1CCCC[C@H]1C(=O)N[C@@H](CCCC)C(=O)NC1(C(=O)O)Cc2ccccc2C1
B3: SEQ ID NO: 535 (peptide)
peptide: Tridecanoyl-[AC4Abu][AC4Abu][AEEA][dQ]RP[NMeR][Cha]SHKG[Oic][Nle][Aib][Phe(4-Cl)]-OH
SMILES: CCCCCCCCCCCCC(=O)NCCC(C(=O)O)C(=O)NCCC(C(=O)O)C(=O)NCCOCCOCC(=O)N[C@H](CCC(N)=O)C(=O)N[C@@H](CCCNC(=N)N)C(=O)N1CCC[C@H]1C(=O)N(C)[C@@H](CCCNC(=N)N)C(=O)N[C@@H](CC1CCCCC1)C(=O)N[C@@H](CO)C(=O)N[C@@H](Cc1c[nH]cn1)C(=O)N[C@@H](CCCCN)C(=O)NCC(=O)N1[C@H](C(=O)N[C@@H](CCCC)C(=O)NC(C)(C)C(=O)N[C@@H](Cc2ccc(Cl)cc2)C(=O)O)C[C@@H]2CCCC[C@@H]21
B4: SEQ ID NO: 474 (peptide)
peptide: {HOOC(CH2)8CO}-[γGlu][AEEA][AEEA][hArg]Q[hArg]P[NMeR][Cha]SHKG[Oic][Nle]P[Phe(4-Cl)]-OH
SMILES: CCCC[C@H](NC(=O)[C@@H]1C[C@@H]2CCCC[C@@H]2N1C(=O)CNC(=O)[C@H](CCCCN)NC(=O)[C@H](Cc1c[nH]cn1)NC(=O)[C@H](CO)NC(=O)[C@H](CC1CCCCC1)NC(=O)[C@H](CCCNC(=N)N)N(C)C(=O)[C@@H]1CCCN1C(=O)[C@H](CCCCNC(=N)N)NC(=O)[C@H](CCC(N)=O)NC(=O)[C@H](CCCCNC(=N)N)NC(=O)COCCOCCNC(=O)COCCOCCNC(=O)CC[C@H](NC(=O)CCCCCCCCC(=O)O)C(=O)O)C(=O)N1CCC[C@H]1C(=O)N[C@@H](Cc1ccc(Cl)cc1)C(=O)O
B5: SEQ ID NO: 534 (peptide)
peptide: Tridecanoyl-[AC4Abu][AC4Abu][AEEA][AEEA][dQ]RP[NMeR][Cha]SHKG[Oic][Nle][Aib][Phe(4-Cl)]-OH
SMILES: CCCCCCCCCCCCC(=O)NCCC(C(=O)O)C(=O)NCCC(C(=O)O)C(=O)NCCOCCOCC(=O)NCCOCCOCC(=O)N[C@H](CCC(N)=O)C(=O)N[C@@H](CCCNC(=N)N)C(=O)N1CCC[C@H]1C(=O)N(C)[C@@H](CCCNC(=N)N)C(=O)N[C@@H](CC1CCCCC1)C(=O)N[C@@H](CO)C(=O)N[C@@H](Cc1c[nH]cn1)C(=O)N[C@@H](CCCCN)C(=O)NCC(=O)N1[C@H](C(=O)N[C@@H](CCCC)C(=O)NC(C)(C)C(=O)N[C@@H](Cc2ccc(Cl)cc2)C(=O)O)C[C@@H]2CCCC[C@@H]21
B6: SEQ ID NO: 598 (peptide)
peptide: Palmitoyl-[AC4Abu][AEEA][AEEA][dQ]RP[NMeR][Cha]SHKG[Pip][Nle]P[Tic]-OH
SMILES: CCCCCCCCCCCCCCCC(=O)NCCC(C(=O)O)C(=O)NCCOCCOCC(=O)NCCOCCOCC(=O)N[C@H](CCC(N)=O)C(=O)N[C@@H](CCCNC(=N)N)C(=O)N1CCC[C@H]1C(=O)N(C)[C@@H](CCCNC(=N)N)C(=O)N[C@@H](CC1CCCCC1)C(=O)N[C@@H](CO)C(=O)N[C@@H](Cc1c[nH]cn1)C(=O)N[C@@H](CCCCN)C(=O)NCC(=O)N1CCCC[C@H]1C(=O)N[C@@H](CCCC)C(=O)N1CCC[C@H]1C(=O)N1Cc2ccccc2C[C@H]1C(=O)O
B7: SEQ ID NO: 589 (peptide)
peptide: Palmitoyl-[AC4Abu][AEEA][AEEA]QRP[NMeR][Cha]SHKG[Pip][Nle][Inp][Phe(4-Cl)]-OH
SMILES: CCCCCCCCCCCCCCCC(=O)NCCC(C(=O)O)C(=O)NCCOCCOCC(=O)NCCOCCOCC(=O)N[C@@H](CCC(N)=O)C(=O)N[C@@H](CCCNC(=N)N)C(=O)N1CCC[C@H]1C(=O)N(C)[C@@H](CCCNC(=N)N)C(=O)N[C@@H](CC1CCCCC1)C(=O)N[C@@H](CO)C(=O)N[C@@H](Cc1c[nH]cn1)C(=O)N[C@@H](CCCCN)C(=O)NCC(=O)N1CCCC[C@H]1C(=O)N[C@@H](CCCC)C(=O)N1CCC(C(=O)N[C@@H](Cc2ccc(Cl)cc2)C(=O)O)CC1
B8: SEQ ID NO: 590 (peptide)
peptide: Palmitoyl-[AC4Abu][AEEA][AEEA][dQ]RP[NMeR][Cha]SHKG[Pip][Nle]P[Aic]-OH
SMILES: CCCCCCCCCCCCCCCC(=O)NCCC(C(=O)O)C(=O)NCCOCCOCC(=O)NCCOCCOCC(=O)N[C@H](CCC(N)=O)C(=O)N[C@@H](CCCNC(=N)N)C(=O)N1CCC[C@H]1C(=O)N(C)[C@@H](CCCNC(=N)N)C(=O)N[C@@H](CC1CCCCC1)C(=O)N[C@@H](CO)C(=O)N[C@@H](Cc1c[nH]cn1)C(=O)N[C@@H](CCCCN)C(=O)NCC(=O)N1CCCC[C@H]1C(=O)N[C@@H](CCCC)C(=O)N1CCC[C@H]1C(=O)NC1(C(=O)O)Cc2ccccc2C1
B9: SEQ ID NO: 288 (peptide)
peptide: {HOOC(CH2)8CO}-[γGlu][AEEA][AEEA]Q[hArg]P[dR][NMeL]SHKG[Oic][Phe(4-I)]P[dBip]-OH
SMILES: CC(C)C[C@@H](C(=O)N[C@@H](CO)C(=O)N[C@@H](Cc1c[nH]cn1)C(=O)N[C@@H](CCCCN)C(=O)NCC(=O)N1[C@H](C(=O)N[C@@H](Cc2ccc(I)cc2)C(=O)N2CCC[C@H]2C(=O)N[C@H](Cc2ccc(-c3ccccc3)cc2)C(=O)O)C[C@@H]2CCCC[C@@H]21)N(C)C(=O)[C@@H](CCCNC(=N)N)NC(=O)[C@@H]1CCCN1C(=O)[C@H](CCCCNC(=N)N)NC(=O)[C@H](CCC(N)=O)NC(=O)COCCOCCNC(=O)COCCOCCNC(=O)CC[C@H](NC(=O)CCCCCCCCC(=O)O)C(=O)O
B10: SEQ ID NO: 618 (peptide)
peptide: Palmitoyl-[γGlu][AEEA][AEEA][dQ]RP[NMeR][Cha]SH[Orn]G[Oic][Nle][β3hP][d(β3hF)]-OH
SMILES: CCCCCCCCCCCCCCCC(=O)N[C@@H](CCC(=O)NCCOCCOCC(=O)NCCOCCOCC(=O)N[C@H](CCC(N)=O)C(=O)N[C@@H](CCCNC(=N)N)C(=O)N1CCC[C@H]1C(=O)N(C)[C@@H](CCCNC(=N)N)C(=O)N[C@@H](CC1CCCCC1)C(=O)N[C@@H](CO)C(=O)N[C@@H](Cc1c[nH]cn1)C(=O)N[C@@H](CCCN)C(=O)NCC(=O)N1[C@H](C(=O)N[C@@H](CCCC)C(=O)N2CCC[C@H]2CC(=O)N[C@@H](CC(=O)O)Cc2ccccc2)C[C@@H]2CCCC[C@@H]21)C(=O)O

What was measured:
human APJ receptor = target: T1, human APJ receptor (human, UniProt P35414 1-380); experiment: cell-based or functional assay
T1 sequence (looked up): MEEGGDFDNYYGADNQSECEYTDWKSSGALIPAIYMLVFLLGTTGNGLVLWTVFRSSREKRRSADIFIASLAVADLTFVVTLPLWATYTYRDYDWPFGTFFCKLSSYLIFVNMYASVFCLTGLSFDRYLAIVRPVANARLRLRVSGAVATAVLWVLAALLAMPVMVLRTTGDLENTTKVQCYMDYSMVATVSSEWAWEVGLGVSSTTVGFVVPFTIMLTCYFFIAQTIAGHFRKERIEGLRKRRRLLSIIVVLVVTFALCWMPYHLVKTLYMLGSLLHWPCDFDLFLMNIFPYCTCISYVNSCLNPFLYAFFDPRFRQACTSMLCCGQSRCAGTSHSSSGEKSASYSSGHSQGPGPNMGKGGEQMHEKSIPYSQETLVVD

rat APJ receptor = target: T2, rat APJ receptor (rat, UniProt Q9JHG3 1-377); experiment: cell-based or functional assay
T2 sequence (looked up): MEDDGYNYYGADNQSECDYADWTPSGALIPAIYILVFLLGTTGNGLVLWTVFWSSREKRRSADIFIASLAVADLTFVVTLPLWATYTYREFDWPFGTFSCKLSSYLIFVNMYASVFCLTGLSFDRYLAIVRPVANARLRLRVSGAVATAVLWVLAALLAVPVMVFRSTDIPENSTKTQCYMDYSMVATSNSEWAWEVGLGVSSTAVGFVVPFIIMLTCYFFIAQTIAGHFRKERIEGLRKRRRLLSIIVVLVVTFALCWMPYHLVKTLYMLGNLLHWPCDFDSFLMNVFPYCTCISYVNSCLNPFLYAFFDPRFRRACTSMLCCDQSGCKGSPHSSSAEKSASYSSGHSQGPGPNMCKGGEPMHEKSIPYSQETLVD

Binder | EC50 Human APJ Receptor (human APJ receptor) [nM] | EC50 Rat APJ Receptor (rat APJ receptor) [nM]
B1 | 0.44 | 1.01
XXXQRPRLSHKGPXPF ({Sebacicacid}[AC4Abu][Aeea][Aeea]QRP[NMeArg]LSHKGP[Nle]P[4-Cl-F]{COOH}) [SEQ ID NO: 509] | 0.179 | 0.865
XXXQRPRLSHKGPXPF ({PDA}[AC4Abu][Aeea][Aeea]QRP[NMeArg]LSHKGP[Nle]P[4-Cl-F]{COOH}) [SEQ ID NO: 495] | 0.0829 | 0.532
Palmitoyl-[AC4Abu][AEEA][AEEA][dQ]RP[NPipG][Cha]SHKG[Pip′][Nle][Aib][Phe(4-Cl)]-OH [SEQ ID NO: 645] | 0.254 | 0.395
XXXQRPRLSHKGPXPF ({pIFBu}[AC4Abu][Aeea][Aeea]QRP[NMeArg]LSHKGP[Nle]P[4-Cl-F]{COOH}) [SEQ ID NO: 118] | 0.0475 | 0.171
B2 | 0.885 | 3.37
B3 | 0.798 | 5.15
B4 | 1.14 | 3.76
B5 | 0.683 | 3.75
XXXXQRPRLSHKGPXPF ({TDA}[AC4Abu][AC4Abu][Aeea][Aeea]QRP[NMeArg]LSHKGP[Nle]P[4-Cl-F]{COOH}) [SEQ ID NO: 399] | 0.0335 | 0.104
B6 | 0.463 | 2.84
B7 | 0.624 | 4.15
B8 | 0.816 | 6.2
Palmitoyl-[AC4Abu][AEEA][AEEA][dQ]RP[NMeR][Cha]SHKG[Pip′][Nle]P[β3hF]-OH [SEQ ID NO: 647] | 1.58 | 5.83
B9 | 38.6 | 38.5
B10 | 2.47 | 11.1
